Reference: the RNAGym collection of RNA variant scans (doi:10.7554/elife.90254)

B1: LINE1-mini (parent)
chain: GGCAGAGCUCAACACAGCGUGGCAAAGUGGCUGUGGCUAGACUGCC

Variants of: B1
Test: self-cleavage, relative activity (ratio to wild type); higher = more cleavage; in vitro, sequencing; the parent is a self-cleaving ribozyme

| Variant | self-cleavage |
| --- | --- |
| C13A G22C | 0.05 |
| C13U G21A | 0.22 |
| U43G G44C | 0.32 |
| U32A C42A | 0.05 |
| A4G A24U | 1.02 |
| C8G A16C | 0.11 |
| G7U U43C | 0.18 |
| U9G C18A | 0.07 |
| A6G G35U | 0.08 |
| U9C A25U | 0.04 |
| C8G G19C | 0.05 |
| G21A G35U | 0.35 |
| C18U A41U | 0.92 |
| A14U G27U | 0.29 |
| C3A C23A | 0.61 |
| G27U G33U | 0.07 |
| A11U C18A | 0.07 |
| A4C A6U | 0.11 |
| G2A U28G | 0.48 |
| A6U G33U | 0.16 |
| C15A G35C | 0.05 |
| C23A G35U | 0.22 |
| A39C G44C | 0.04 |
| C10G G27U | 0.08 |

| Variant | self-cleavage |
| --- | --- |
| C8U A16U | 0.13 |
| G2C G5U | 0.03 |
| A4G U32G | 0.08 |
| C23A A24U | 1 |
| A14U A24U | 0.42 |
| A12U G40C | 0.06 |
| U9A A26U | 0.21 |
| C8G A39C | 0.17 |
| G35U A39G | 0.22 |
| C3A G7A | 0.97 |
| U32G A41G | 0.08 |
| C23G U34A | 0.09 |
| C3U U34G | 0.07 |
| C23A A41C | 0.05 |
| C37U A41C | 0.02 |
| C18A A24C | 0.18 |
| G29C C42A | 0.1 |
| C3G A4G | 0.2 |
| G2U G36C | 0.05 |
| U34G C42A | 0.07 |
| G29U U43A | 0.2 |
| C10G A14U | 0.05 |
| A24C G30U | 0.79 |
| C15U A39G | 0.11 |

| Variant | self-cleavage |
| --- | --- |
| A11C C13A | 0.03 |
| A39G G40U | 0.14 |
| U32C U43G | 0.13 |
| G30U G33U | 0.08 |
| G2A U20G | 0.36 |
| U32C G36U | 0.06 |
| G5U A12U | 0.06 |
| U9A C10G | 0.04 |
| G22U C23A | 1.25 |
| U20C G30C | 0.98 |
| U34A A39U | 0.06 |
| U34G C46U | 0.19 |
| C31G G40C | 0.05 |
| U20A G36A | 0.26 |
| U28G G44A | 0.28 |
| C8G G30A | 0.21 |
| C10G A41G | 0.05 |
| C3U A14G | 0.34 |
| C8A G33C | 0.28 |
| A6G A24C | 0.13 |
| G17U G30A | 0.82 |
| G2A | 0.92 |
| G7C G21A | 0.2 |
| G19A A24G | 1.45 |

| Variant | self-cleavage |
| --- | --- |
| A4G G44A | 0.48 |
| G1C C8A | 0.06 |
| C31U U38A | 0.2 |
| A6G U32A | 0.07 |
| G2C U38A | 0.06 |
| A4G G21C | 0.24 |
| C10U A24U | 0.48 |
| G1C G7A | 0.04 |
| C10A C23U | 0.06 |
| C15U U20A | 0.92 |
| C3G G35C | 0.13 |
| G17A G36C | 0.05 |
| C10G U34G | 0.03 |
| A14G A41U | 0.77 |
| C15U C42A | 0.08 |
| A11U U20G | 0.16 |
| A14C C45G | 0.11 |
| A26G A41U | 0.54 |
| A12C G33U | 0.02 |
| G7C C8U | 0.2 |
| A24U G29C | 0.58 |
| A24G C46U | 0.93 |
| G27U U43C | 0.1 |
| A25G | 0.73 |

| Variant | self-cleavage |
| --- | --- |
| G27A A41G | 0.38 |
| A14C U38C | 0.07 |
| C10U G29C | 0.2 |
| A6C U43G | 0.03 |
| A4G C10G | 0.05 |
| G21U G44C | 0.25 |
| A14G A41C | 0.05 |
| A6G G40A | 0.1 |
| C23G C45A | 0.79 |
| U28C G44U | 0.34 |
| G19U C37A | 0.05 |
| C15A G22U | 0.08 |
| U20A G22C | 0.38 |
| A6G G30C | 0.13 |
| G33U G44C | 0.06 |
| A24G G40U | 0.16 |
| G5A C23A | 0.14 |
| A6C G22C | 0.65 |
| A26C G36C | 0.11 |
| G1U G19A | 0.57 |
| C23G A24U | 0.75 |
| A4C C31U | 0.06 |
| C13A A24U | 0.08 |
| C3U U32G | 0.09 |

| Variant | self-cleavage |
| --- | --- |
| A4U A41U | 0.12 |
| G5C A39G | 0.07 |
| C10A C45U | 0.07 |
| A16U G17U | 0.03 |
| G21C A41G | 0.32 |
| C3G U38A | 0.18 |
| A25U G29C | 0.38 |
| A12U C31G | 0.04 |
| A4C G7C | 0.17 |
| G27U C31A | 0.46 |
| G5U A11C | 0.03 |
| C18A A26G | 0.57 |
| A6G C46U | 0.09 |
| G33U G36C | 0.05 |
| A11C A16C | 0.01 |
| U38A C45A | 0.2 |
| C3A G17U | 0.2 |
| C15G A41C | 0.04 |
| U20G C37U | 0.06 |
| G1U C13A | 0.05 |
| C3G A11C | 0.04 |
| A16C C31G | 0.03 |
| A41C C42A | 0.05 |
| A26U U38A | 0.35 |

| Variant | self-cleavage |
| --- | --- |
| C3U U9G | 0.15 |
| A4G U28C | 1.09 |
| C10U G21C | 0.19 |
| C23G G29C | 0.26 |
| C15G G30A | 0.07 |
| C15U G33U | 0.37 |
| G33A C42U | 0.14 |
| U34A G44U | 0.11 |
| G2A U38G | 0.05 |
| C13A G22A | 0.15 |
| C18A C23A | 1.02 |
| C18G G21A | 0.77 |
| G7A G29C | 0.07 |
| A4U G36C | 0.07 |
| G7U C13A | 0.14 |
| A41U C46A | 0.33 |
| C3U A11G | 0.03 |
| A4U A6U | 0.13 |
| A41C C45G | 0.1 |
| A14G U38A | 0.52 |
| G44A C46A | 0.08 |
| G7C U20A | 0.06 |
| G19U G35C | 0.09 |
